Experimental data: the nanobody polyreactivity screen of Harvey et al. (2022)

Test: yeast display, Sf9 membrane polyspecificity reagent, FACS + sequencing; frameworks hold sequencing errors
Summary of the method: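 Synthetic nanobody libraries on Saccharomyces cerevisiae BJ5465 were galactose-induced for 36–48 hours, stained 1 hour at 4 °C with 10% biotinylated, detergent-solubilized Sf9 membrane reagent and enriched on streptavidin microbeads. FACS then separated cells into low and high (top ~1%) gates by anti-HA (expression) and streptavidin (reagent binding) fluorescence. Genes were colony-PCR amplified, MiSeq 2 × 250 sequenced and CDR-length filtered. A clone's polyreactivity label is that of its gate of origin.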

Row | Sequence | polyreactivity (PSR sort gate)
1 | QVHLVESGGGLVQAGGSLRLSCAASGFTFYRTAMGWYRQPPGKERELVAAITRGASTYYADSVKGRFTISRDNAKNNVYLQMNSLKPEDTAVYYCAADRYYYRGRYYGYTREFDYWGQGTQVTVSS | high polyreactivity
2 | QVHLVESGGGLVQAGGSLRLSCAASGFTFYSYAMGWYRQAPGKERELVANITIGGSTYADSVKGRFTISRDNAKNTVYLQMNSLKPEDTAVYYCARGYRVVGDPLYGDYDYWGQGTQVTVSS | low polyreactivity
3 | QVHLVESGGGLVQAGGSLRLSCAASGFTSQYYAMGWYRQAPGKERELVAAITLRDGSTYYADSVKGRFTISRDNAKNTVYLQMNSLKPEDTAVYYCNTDATSDPYGFGYWGQGTQVTVSS | low polyreactivity
4 | QVHLVESGGGLVQAGGSLRLSCAASGGLFTSYDMGWYRQEPGKEREFVAGISDSGGSTYYADSVKGRFTISRDNAKNTVYLQMNSLKPEVTAVYYCAVESYRRYYYWGQGTQVTVSS | high polyreactivity
5 | QVHLVESGGGLVQAGGSLRLSCAASGIFSRYAMRWYRQAPGKERELVDAISSGDSTNYADSVKGRFTISRDNAKNTVYLQMNSLKPEDTAVYYCATERSHLASGQGYYYVQTFYYWGQGTKVTVSS | low polyreactivity
6 | QVHLVESGGGLVQAGGSLRLSCAASGIIFPSYVMGWYRQAPGKEWELVARISARGGRTYYADSVKGRFTISRDNAKNTVYLQMNSLKPEDTAVYYCAARWGITTWYDYWGQGTQVTVSS | high polyreactivity
7 | QVHLVESGGGLVQAGGSLRLSCAASGIIFSDYALGWYRQAPGKERELVAAITSSGCSTYYADSVKGRFTISRDNAKNTVYLQMNSLKPEDTAVYYCNARYRRKSWRPFDYWGQGTQVTVSS | high polyreactivity
8 | QVHLVESGGGLVQAGGSLRLSCAASGIIFYANVMGWYRQAPGKERELVAGISRNGGRTYYADSVKGRFTFSRDNAKNTVYLQMICLKPEDTAVYYCAARGSYTSIFDYWGQGTQVTVSS | high polyreactivity
9 | QVHLVESGGGLVQAGGSLRLSCAASGITFHGYAMGWYRQAPGKERELVAAISDSGSSTYYADSVKGRFTISRDNAKNTVYLQMNSLKPEDTAVYYCAAVSGFYDQYDYWGQGTQVTVSS | low polyreactivity
10 | QVHLVESGGGLVQAGGSLRLSCAASGITFRSYAMGWYRQAPGKERELVAAISTSGGRTYYADSVKGRFTISRDNAKNTVYLQMNSLKPEDTAVYYCNKVGGVYGYYAYGLGYWGQGTQVTVSS | high polyreactivity
11 | QVHLVESGGGLVQAGGSLRLSCAASGITFYIYAMGWYRQAPGTERELVAAISWRTGRTYYADSVKGRFTISRDNAKNTVYLQMNSLKPEYTAVYYCAAGVWVAGAFDYWGQGTQVNVSS | high polyreactivity
12 | QVHLVESGGGLVQAGGSLRLSCAASGLIFARNAMGWYSQAPGKEREMVAAISRSGSTNYADSVKGRFTISRDNAKNTVYLQMNSLKPEDTAVYYCAADHARYLGFPRVDYWGQGTQVTVSS | low polyreactivity
13 | QVHLVESGGGLVQAGGSLRLSCAASGLTFAWYAMGWYSQAPGKERELVAVISNGGSTNDADSVKGRFTISRDNAKNTVYLQMNSLKPEDTAVYYCAAGWVWSGNDYYYWGQGTQVTVSS | low polyreactivity
14 | QVHLVESGGGLVQAGGSLRLSCAASGLTFGVFAMGWYRQAPGKERELVAAITWRGDTTYYADSVKGRFTISRDNAKNTVYLQMNSLKPEDTAVYYCNAVFFYHGTKPAFISHDYWGQGTQVTVSS | low polyreactivity
15 | QVHLVESGGGLVQAGGSLRLSCAASGLTFIPNAMGWYRQAPGKERELVAAISGTGGSTYYADSVKGRFTISRDNAKNTVYLQMNRLKPEDTAVYYCAARRRYKSGYWGQGTQVTVSS | high polyreactivity
16 | QVHLVESGGGLVQAGGSLRLSCAASGLTFQYYAMGWYRQAPGKQRELVAAISSRGGRTYYADSVKGRFTISRDNAKNTVYLQMNSLKPEDTAVYYCAAEWWAPDRVTRGRIYGYWGQGTQVTVSS | high polyreactivity
17 | QVHLVESGGGLVQAGGSLRLSCAASGNIFTINAMGWYRQAPGKERDLVARITWGGGNTFYADSVKGRFTISRDNAKNTVYLEMNSLKPEDTAVYYCNAVGPYDYRYGKYDYWGQGTQVTVSS | low polyreactivity
18 | QVHLVESGGGLVQAGGSLRLSCAASGNIIPGNAMGWYRQAPGKERELVAAISYSGVRTHYADSVKGRFTISRDNAKNTVYLQMNSLKPEDTAVYYCAASGEQDYDYWGQGTQVTVSS | low polyreactivity
19 | QVHLVESGGGLVQAGGSLRLSCAASGNTFYWYVMGWYRQAPGKERDLVARITSSGGSTNYADSVKGRFTISRDNAKNTVYLQMISLKPEDTAVYYCAADDIYLYGGGTDYYYWGQGTQVTVSS | low polyreactivity
20 | QVHLVESGGGLVQAGGSLRLSCAASGNTHVKNAMGWYRQAPGKERELVAAISSSGGRTYYGDSVKGRFTISRDNAKNTVYLQMNSLKPDDTAVYYCAARYPSGYYYWGQGTQVTVSS | high polyreactivity
21 | QVHLVESGGGLVQAGGSLRLSCAASGRIFDYYAMGWYRQAPGKERELVARITSGGTTNYADSVKGRFTISRDNENNTVYLQMNSLKPEYTEVYYCKAHDYSDPLQMDYWGQGTQVTVSS | low polyreactivity

Row | Sequence | polyreactivity (PSR sort gate)
22 | QVHLVESGGGLVQAGGSLRLSCAASGRIFGRNAMGWYRQAPGQERELVAAITSGSSTYYADSVKGRFTISRDNAKNTVYLQMNSLKPEDTAVYYCAARTIGYHYTGGYGYWGQGTQVTVSS | high polyreactivity
23 | QVHLVESGGGLVQAGGSLRLSCAASGRIFGTYVMGWYRQAPGKERELVARITGGGSTNYADSVKGRFTISRDNAKNTVYLQMNSLKPEDTAVYYCARDYGPYLSPENPAPMDYWGQGTQVTVSS | low polyreactivity
24 | QVHLVESGGGLVQAGGSLRLSCAASGRIFGYYAMGWYRQAPGKERELVAAISYSTGGTSTYADSVKGRFTISRDNAKNTVYLQMNSLKPEDTAVYYCAVRRQYRRAYSFSQSRYDYWGQGTQVTVSS | high polyreactivity
25 | QVHLVESGGGLVQAGGSLRLSCAASGRIFNSYAMGWYRPAPGKERELVAAINWTDVSTYYADSVKGRFTLSRYNAKNTVYVELNSLTPDDTAVYYGPDVRWGSYTLSDDYWGQGTQVTVSS | low polyreactivity
26 | QVHLVESGGGLVQAGGSLRLSCAASGRIFNSYAMGWYRQAPGKERELVAAISRNGGITYYADSVKGRFTISRDNAKNTVYLQMNSLKPEDTAVYYCNADCSRRRYSSDYWGQGTQVTVSS | high polyreactivity
27 | QVHLVESGGGLVQAGGSLRLSCAASGRIFRGYAMGWYRQAPGKERELVATISWNGGSTYYADSVKGRFTISRDNAKNTVYLQMNSLKPEDTAVYYCNKRYWGGRYGYDYWGQGTQVTVSS | high polyreactivity
28 | QVHLVESGGGLVQAGGSLRLSCAASGRIFSYYALGWSRQAPGKERELVAAISWSGSRTYYADSVKGRFTFSRDNAKNTVYFQMNSLKPEDTAVYYCDAEVWSTQGSATVQYDYCGQGTQVTVSS | high polyreactivity
29 | QVHLVESGGGLVQAGGSLRLSCAASGRIFTFYAMGWYRQAPGKERELVAAISSSGVRTYYADSVKGRFTISRDNAKNTVYLQMNSLKPEDTAVYYCAAASRANSYRYNYWGQGTQVTVSS | high polyreactivity
30 | QVHLVESGGGLVQAGGSLRLSCAASGRIFVFNAMGWYRQAPGKDRELVAAISRSAFSTYYADSVKGRFTISRDNAKNTVYLHMISLIPEDTAVYYCTDERTYWFFWEMDSWGQGTQVTVSS | low polyreactivity
31 | QVHLVESGGGLVQAGGSLRLSCAASGRIFYKNAMGWYRQAPGKERELVASITVGGGRTSYADSVKGRFTISRDNAKNTVYLQMNSLKPEDTAVFYCAATTGKTTFRATWYDYWGQCTQVTVSS | low polyreactivity
32 | QVHLVESGGGLVQAGGSLRLSCAASGRIFYRNAMGWYRHAPGKERELVAAISRRGGSTSYADSVQGRFTISRDNAKNTVYLQMTSLKPEDTAVYYCAASRFRTGQEDDYWGQGTQVTVSS | high polyreactivity
33 | QVHLVESGGGLVQAGGSLRLSCAASGRIFYSNVMGWYSQAPGKERELLAAISWSGGRTYYADSVKGRFTISRDNAKNTVYLQMNSLKPEDTAVYYCAAPGGVKYDYWGQGTQVTVSS | high polyreactivity
34 | QVHLVESGGGLVQAGGSLRLSCAASGRIFYYYAMGWYRQAPGKERELVAGITITDASTYYADSVKGRFTISRDYAKNTVYLQMNSLKPEYTAVYYCNAVRYWEGRRYYYWGQGTQVTVSS | high polyreactivity
35 | QVHLVESGGGLVQAGGSLRLSCAASGRILGKYSMGWYRQAPGKERELVAAIRLRGGSTYYADSVKGRFTISRDNAKNTVYLQMNSLKPEDTAVYYCAARYWDRSQAYNYWGQGTQVTVSS | high polyreactivity
36 | QVHLVESGGGLVQAGGSLRLSCAASGRILVQNDMGWYRQAPGKERELVAAIRSDGSTSYADSVKGRFTISRDNAKNTVYLQMNSLKPEDTAVYYCAARIDWTGGEYDYWGQGTQVTVSS | low polyreactivity
37 | QVHLVESGGGLVQAGGSLRLSCAASGRIYYRYAMGWYRTAPGKERELVAAISASGRTYYADSVKGRFTISRDNAKNTVYLQMNSLKTEDTAVYYCAKVAAGSLGSWGQGTQVTLSS | high polyreactivity
38 | QVHLVESGGGLVQAGGSLRLSCAASGRLFFYALGWYRQSPRKERELVAAISWSGGSTYYADSVKGRFTISRDNAKNTVYLQMNSLKPEDTAVYYCAADYEGWGYDYRGDYWGQGTQVTVSS | low polyreactivity
39 | QVHLVESGGGLVQAGGSLRLSCAASGRTFDRNAMGWYRQAPGKERELVAAISRNGGSTYYADSVKGRFTISRDNAKNTVYLQMNSLKPEDTAVYYCAAPRSVYDVARGDYWGQGTQVTVSS | high polyreactivity
40 | QVHLVESGGGLVQAGGSLRLSCAASGRTFDVYAMGWYRQATGKERQLVATISYRSARTYYADSVKGRFTISRDNAKNTVYLQMNSLKPEDTAVYYCAAYFETWHGFGYWGQGTQVTVSS | high polyreactivity
41 | QVHLVESGGGLVQAGGSLRLSCAASGRTFPSNVMGWYRQAPGKERELVAGITWRGASTYYADSVKGRFTISRDNAKNTVYLQMNSLKPEDTAVYYCAVRTQYRRYEYWGQGTKVTVSS | high polyreactivity
